Patent US20230250158A1 (TALEM THERAPEUTICS, published 2023)
Where two headings read alike, the source gives them in different places.

Assays:
[1] = target: V367F; test: ELISA, heat map
[2] = target: G476S; test: ELISA, heat map
[3] = target: N354D; test: ELISA, heat map
[4] = target: K458R; test: ELISA, heat map
[5] = target: A435S; test: ELISA, heat map
[6] = target: W436R; test: ELISA, heat map
[7] = target: F342L; test: ELISA, heat map
[8] = target: Y453F; test: ELISA, heat map
[9] = target: N439K; test: ELISA, heat map
[10] = target: V483A; test: ELISA, heat map
[11] = target: N501Y; test: ELISA, heat map
[12] = target: E484K; test: ELISA, heat map
[13] = target: K417N; test: ELISA, heat map
[14] = target: B.1.351 (S1); test: ELISA, heat map
[15] = target: SARS-CoV-2 Spike trimer (recombinant, wild type) (SARS-CoV-2, UniProt P0DTC2 14-1213); test: ELISA on plate-adsorbed recombinant Spike
[16] = target: T1, SARS-CoV-2 Spike RBD (tagless) (SARS-CoV-2, UniProt P0DTC2 319-541)
[17] = target: T1, SARS-CoV-2 Spike RBD (tagless); test: Octet BLI; tagless RBD as analyte over 23-H7-coated AHC sensors; 1:1 kinetic fit

Row | Binder | binding result [1] | binding result [2] | binding result [3] | binding result [4] | binding result [5] | binding result [6] | binding result [8] | binding result [9] | binding result [10] | binding result [11] | binding result [12] | binding result [13] | binding result [14] | EC50 (read off the curve) [15] | Kd [16] | further results
1 | 22-D9 (antibody, V domains shown, also called bin 4) VH: QVQLVQSGAEVKKPGSSVNVSCKTSGGTFNTYSINWVRQAPGQGLEWMGEIIPIFDKPNYAQKFQGRVTITADESTSTAYMELTSLRSDDTAVYYCARGTGYYYGMDVWGQGTTVTVSS VL: QSVLTQPPSVSGAPRQTVTISCFGSRSNIGNYPVNWYHQVPGKAPKVVVYYDDLLPSGISDRFSGYKSGTSASLTISGLRSEDEADYYCATWDDSLNVWVFGGGTKLTVL | binds | binds | binds | binds | binds | binds | binds | binds | binds | binds | binds | binds | no binding | ~10 ng/mL |  | binding result [7]: binds
2 | 23-H7 (antibody, V domains shown, also called bin 2) VH: QVQLVQSGAEVKLPGASMKVSCKASGYTFSTYYMHWVRQAPGQGPEWMGVIDPSGGTTSYAQKFHDRIAMTRDTSTSTAYLELSSLRSEDMAVYYCARGGFADAVDYWGQGTLVTVSS VL: NFMLTQPHSVSGSPGKTVTISCTRNSGSIAGNYVQWYQQRPGSAPTTVIYEDNQRPSGVPDRFSGSIDSSSNSASLTISGLKTEDEADYYCQSYDASHLHVIFGGGTKVTVL | binds | binds | binds | binds | binds | binds | binds | binds | binds | binds | binds | binds | binds | ~2 ng/mL | 4 nM | Kd [17]: 4 nM
3 | 23-H7 Fab (Fab, V domains shown) VH: QVQLVQSGAEVKLPGASMKVSCKASGYTFSTYYMHWVRQAPGQGPEWMGVIDPSGGTTSYAQKFHDRIAMTRDTSTSTAYLELSSLRSEDMAVYYCARGGFADAVDYWGQGTLVTVSS VL: NFMLTQPHSVSGSPGKTVTISCTRNSGSIAGNYVQWYQQRPGSAPTTVIYEDNQRPSGVPDRFSGSIDSSSNSASLTISGLKTEDEADYYCQSYDASHLHVIFGGGTKVTVL |  |  |  |  |  |  |  |  |  |  |  |  |  |  | 4.6 nM | 
4 | 22-F7 (antibody, V domains shown, also called bin C) VH: QVQLVESGGGVVQPGRSLRLSCAASGFSFTNYGMHWVRQAPGKGLEWVAVISYDGSIKYYEDSLKGRFTVSRDNSKKTLYLQMNSLRAEDTAVYYCTRERGTGIDYWGLGTLVTVSS VL: QSALTQPASVSGYPGQSITLSCTGTKSDIGAYNYVSWYQQHPGKAPKLMVYDVSNRPSGLSNRFSGSKSDNTASLTISGLQAEDEAHYYCSSYTTSGTVVFGGGTKVTVL |  |  |  |  |  |  |  |  |  |  |  |  | binds |  |  | 
5 | 22-E7 (antibody, V domains shown, also called bin C) VH: QVQLVESGGGVVQPGTSLRLSCAASGFTFNNYPMFWVRQAPGKGLEWLALISYDGNHKVYADSVKGRFTISRDNAKNTLYLQMHSLRAEDTALYYCASDLSGAEDSWGQGTLVTVSS VL: QSALTQPASVSGSPGQSITISCTGTSSDVGGYNYVSWYQQHPGKAPKLLIYEVSNRPSGVSNRFSGSKSGNTASLTISGLQAEDEADYYCSSYTSSSTWVFGGGTKLTVL |  |  |  |  |  |  |  |  |  |  |  |  | binds |  |  | 
6 | 2-A6 (antibody, V domains shown, also called bin S2) VH: QVTLRESGPALVKPTQTLTLTCTFSGFSLNTRGMSVSWIRQPPGKALEWLALIDWEDDKFYRTSLMTRLTISKDIFKNQVVLTMTNVDPVDTGTYYCARTYSVGVKYFGMDVWGQGTTVTVSS VL: SSELTQDPAVSVALGQTVRITCQGDSLRNYYASWYRQEPGQAPILLIYGGNYRPSGIPDRFSGSSSGNTASLTITGAQAEDEADYYCNSRDSSGNHVVFGGGTKLTVL |  |  |  |  |  |  |  |  |  |  |  |  | no binding |  |  | 
